The source of these data is patent publication US20070203188, “Low molecular weight Myc-Max inhibitors” (University of Pittsburgh, published 2007).

The target in this series is c-Myc353-439 (bHLH-LZ)/Max(S) heterodimer (Homo sapiens, UniProt P01106;P61244-2 P01106:368-454,P61244-2:1-151). In words: EMSA; 60 nM each protein, 10 nM DNA; 1xPBS pH 7.3, 1 mM EDTA, 0.1% NP40, 5% glycerol, 1 mM DTT, 0.4 mg/mL BSA, 25 C; binding inhibited dose-dependently by 10058-F4 and analogs. Particulars: tags: c-Myc: His6 cleaved by TEV, GGCD C-terminal extension, label: 5'-HEX on one strand. How it is done:
Electrophoretic mobility shift Assays (EMSAs). Experiments were performed on 8% polyacrylamide:bis-acrylamide (80:1) gels in 0.5×TBE. Binding reactions were prepared in a buffer consisting of 1×PBS (pH 7.3); 1 mM EDTA; 0.1% NP40; 5% glycerol; 1 mM dithiothreitol; and 0.4 mg/mL BSA. A 22 base-pair E-box-containing double-stranded DNA oligonucleotide labeled on one strand with hexachlorofluoresceine (HEX) consisted of the following sequence:
The second method used to gauge the effects of 10058-F4 and its analogs on c-Myc-Max complexes relied on the use of a simple, three component electrophoretic mobility shift assay (EMSA). For this purpose, a recombinant c-Myc peptide, which encompasses the bHLH-LZ domain (c-_{Myc353-439}), together with the full-length His₆-tagged 151 amino acid isoform of Max [designated Max(S)] (Zhang H, et al. J Biol Chem 1997; 272; 17416-24 and Prochownik E V, et al. Proc Natl Acad Sci USA 1993; 90:960-4) were incubated in increasing concentrations of each relevant compound. The ability of the resultant heterodimer to bind a double-stranded target oligonucleotide containing a consensus E-box motif was then assessed by PAGE. […]
(In general: A gel shift assay detects complexes by their altered migration in electrophoresis.)

Chain of c-Myc353-439 (bHLH-LZ)/Max(S) heterodimer (P01106 368-454, chain 1 of 2): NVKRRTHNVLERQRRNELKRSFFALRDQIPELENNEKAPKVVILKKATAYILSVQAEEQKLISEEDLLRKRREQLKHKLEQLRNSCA
Chain of c-Myc353-439 (bHLH-LZ)/Max(S) heterodimer (P61244 other isoform, or with tags, fused parts or gaps, chain 2 of 2): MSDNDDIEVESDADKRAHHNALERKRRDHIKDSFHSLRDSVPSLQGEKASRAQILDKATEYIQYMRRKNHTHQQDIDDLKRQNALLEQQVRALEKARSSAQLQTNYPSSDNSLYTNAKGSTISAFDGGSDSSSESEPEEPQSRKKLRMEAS

B1: E-box 22-mer duplex (dsDNA)
DNA 1: CACCCGGTCACGTGGCCTACAC
DNA 2: GTGTAGGCCACGTGACCGGGTG
Consider B1, for which the binding result is “binds”.
